Measurements taken from patent US20090081786A1, “Peptide sequences for modulation of protein kinase C” (priority 2006, published 2009).

Target: δ-PKC in isolated rat hearts (rat), P09215
Assay: cell-based or functional assay

δ-PKC in isolated rat hearts (rat), P09215, sequence (P09215 whole entry, stated change not applied): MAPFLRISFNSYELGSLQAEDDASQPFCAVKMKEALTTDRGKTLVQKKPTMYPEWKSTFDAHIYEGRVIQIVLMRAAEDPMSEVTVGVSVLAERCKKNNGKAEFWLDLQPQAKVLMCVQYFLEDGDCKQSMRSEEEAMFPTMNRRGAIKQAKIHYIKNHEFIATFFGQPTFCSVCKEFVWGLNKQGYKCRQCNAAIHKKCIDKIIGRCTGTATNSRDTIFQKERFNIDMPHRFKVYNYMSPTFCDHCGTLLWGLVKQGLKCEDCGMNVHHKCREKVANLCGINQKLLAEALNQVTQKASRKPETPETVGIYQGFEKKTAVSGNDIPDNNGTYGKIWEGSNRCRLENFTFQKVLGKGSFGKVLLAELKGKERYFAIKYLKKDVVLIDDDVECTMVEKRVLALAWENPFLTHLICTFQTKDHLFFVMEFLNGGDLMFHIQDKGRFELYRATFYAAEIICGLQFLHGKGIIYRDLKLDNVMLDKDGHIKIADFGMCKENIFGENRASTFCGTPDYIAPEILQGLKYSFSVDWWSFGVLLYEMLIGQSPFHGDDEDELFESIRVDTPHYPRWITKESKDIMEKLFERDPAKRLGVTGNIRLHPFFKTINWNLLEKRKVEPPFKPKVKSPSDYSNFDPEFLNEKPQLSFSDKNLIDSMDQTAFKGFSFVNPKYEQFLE

B1: annexin V-derived peptide pAnxV (annexin V residues 157-164) conjugated to TAT47-57 carrier peptide (peptide)
peptide: LQANRDPD
chain: YGKKRRQRRR
modifications: not checked
- creatine phosphokinase (CPK) release in the heart perfusate during reperfusion: > 50 % reduction
- infarct size after ischemia/reperfusion in isolated rat hearts: 70 % reduction
